System: Escherichia coli TOP10
Assay: shrunken log2 fold change of peptide-encoding DNA abundance (4.5 h post-induction vs induction); higher = less antimicrobial activity (less host growth inhibition)
Conditions: time post-induction: 4.5 h; library: site-saturation at positions 5, 18, 19, 20
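Further: peptides expressed intracellularly from a pBAD plasmid library in pooled LB shake-flask culture, induced with 0.3% L-arabinose, DNA abundance read by NGS, three biological replicates, DESeq2 with apeglm shrinkage.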

Row | Sequence | shrunken log2 fold change
1 | RRIRGRPPRLPRPRPRPAKNPRP | 0.554
2 | RRIRRRPPRLPRPRPRPRQNPRP | 0.419
3 | RRIRSRPPRLPRPRPRPDCGPRP | 0.0769
4 | RRIRKRPPRLPRPRPRPPIMPRP | -0.0359
5 | RRIRTRPPRLPRPRPRPDIWPRP | -0.392
6 | RRIRIRPPRLPRPRPRPELVPRP | -0.105
7 | RRIRVRPPRLPRPRPRPSQWPRP | 0.0963
8 | RRIRWRPPRLPRPRPRPTIIPRP | -0.348
9 | RRIRPRPPRLPRPRPRPHRIPRP | -0.414
10 | RRIRCRPPRLPRPRPRPTACPRP | -0.0786
11 | RRIRARPPRLPRPRPRPSNKPRP | -0.31
12 | RRIRYRPPRLPRPRPRPYNLPRP | 0.00739
13 | RRIRNRPPRLPRPRPRPIMAPRP | -0.187
14 | RRIRVRPPRLPRPRPRPHPFPRP | -0.0878
15 | RRIRSRPPRLPRPRPRPSIVPRP | -0.525
16 | RRIRYRPPRLPRPRPRPHFTPRP | -0.817
17 | RRIRDRPPRLPRPRPRPHFLPRP | 0.0122
18 | RRIRCRPPRLPRPRPRPVHYPRP | -0.0961
19 | RRIRLRPPRLPRPRPRPWWGPRP | -0.063
20 | RRIRMRPPRLPRPRPRPSYNPRP | -0.808
21 | RRIRARPPRLPRPRPRPAELPRP | 0.426
22 | RRIRVRPPRLPRPRPRPIETPRP | 0.0184
23 | RRIRYRPPRLPRPRPRPKSMPRP | -0.584
24 | RRIRPRPPRLPRPRPRPASKPRP | 0.022
25 | RRIRKRPPRLPRPRPRPRTNPRP | 0.238

Row | Sequence | shrunken log2 fold change
26 | RRIRWRPPRLPRPRPRPGGEPRP | 0.107
27 | RRIRTRPPRLPRPRPRPCYRPRP | -0.0575
28 | RRIRLRPPRLPRPRPRPEYKPRP | -0.438
29 | RRIRSRPPRLPRPRPRPGMFPRP | 0.107
30 | RRIRCRPPRLPRPRPRPQYMPRP | -0.784
31 | RRIRFRPPRLPRPRPRPFVPPRP | -0.668
32 | RRIRYRPPRLPRPRPRPPTAPRP | -0.111
33 | RRIRKRPPRLPRPRPRPHYFPRP | -0.268
34 | RRIRLRPPRLPRPRPRPPATPRP | 0.725
35 | RRIRQRPPRLPRPRPRPNQMPRP | -0.0557
36 | RRIRWRPPRLPRPRPRPTYKPRP | -0.467
37 | RRIRRRPPRLPRPRPRPFSYPRP | 0.016
38 | RRIRERPPRLPRPRPRPALNPRP | 0.0441
39 | RRIRERPPRLPRPRPRPRDAPRP | 0.446
40 | RRIRCRPPRLPRPRPRPMKPPRP | 0.0236
41 | RRIRHRPPRLPRPRPRPSIIPRP | -0.237
42 | RRIRGRPPRLPRPRPRPTRDPRP | 0.965
43 | RRIRQRPPRLPRPRPRPHWLPRP | -0.222
44 | RRIRMRPPRLPRPRPRPFHLPRP | -0.0432
45 | RRIRPRPPRLPRPRPRPSDFPRP | -0.42
46 | RRIRTRPPRLPRPRPRPFAYPRP | -0.136
47 | RRIRARPPRLPRPRPRPIVWPRP | 0.393
48 | RRIRMRPPRLPRPRPRPGTKPRP | 0.844
49 | RRIRMRPPRLPRPRPRPVHTPRP | 0.213
50 | RRIRVRPPRLPRPRPRPTEDPRP | -0.113

Row | Sequence | shrunken log2 fold change
51 | RRIRDRPPRLPRPRPRPTAWPRP | 1.51
52 | RRIRGRPPRLPRPRPRPVKRPRP | 0.248
53 | RRIRYRPPRLPRPRPRPRLQPRP | 0.196
54 | RRIRNRPPRLPRPRPRPDHNPRP | -0.245
55 | RRIRHRPPRLPRPRPRPFWCPRP | -0.3
56 | RRIRMRPPRLPRPRPRPGHMPRP | -0.203
57 | RRIRIRPPRLPRPRPRPTAQPRP | 0.154
58 | RRIRRRPPRLPRPRPRPGFLPRP | -0.0551
59 | RRIRYRPPRLPRPRPRPSAQPRP | -0.17
60 | RRIRGRPPRLPRPRPRPFSNPRP | 0.064
61 | RRIRNRPPRLPRPRPRPLEAPRP | -0.00641
62 | RRIRGRPPRLPRPRPRPMWIPRP | 0.218
63 | RRIRTRPPRLPRPRPRPNWVPRP | -0.159
64 | RRIRFRPPRLPRPRPRPMKNPRP | -0.0862
65 | RRIRGRPPRLPRPRPRPVVAPRP | 1.19
66 | RRIRLRPPRLPRPRPRPEIGPRP | 0.0748
67 | RRIRCRPPRLPRPRPRPQDDPRP | 0.0976
68 | RRIRWRPPRLPRPRPRPAPEPRP | 0.603
69 | RRIRVRPPRLPRPRPRPHLTPRP | -0.333
70 | RRIRARPPRLPRPRPRPMQQPRP | 0.281
71 | RRIRGRPPRLPRPRPRPRPHPRP | 0.51
72 | RRIRKRPPRLPRPRPRPELIPRP | 0.0174
73 | RRIRERPPRLPRPRPRPWWRPRP | 0.098
74 | RRIRPRPPRLPRPRPRPHMYPRP | -0.316
75 | RRIRYRPPRLPRPRPRPHVAPRP | -0.312

Row | Sequence | shrunken log2 fold change
76 | RRIRFRPPRLPRPRPRPRNGPRP | 0.101
77 | RRIRHRPPRLPRPRPRPMKLPRP | -0.254
78 | RRIRWRPPRLPRPRPRPVKPPRP | 0.539
79 | RRIRGRPPRLPRPRPRPTCSPRP | 0.991
80 | RRIRNRPPRLPRPRPRPGNKPRP | -0.408
81 | RRIRQRPPRLPRPRPRPAAQPRP | -0.00152
82 | RRIRGRPPRLPRPRPRPGEHPRP | 0.587
83 | RRIRFRPPRLPRPRPRPGTTPRP | -0.032
84 | RRIRDRPPRLPRPRPRPQCRPRP | 0.0338
85 | RRIRKRPPRLPRPRPRPFYWPRP | 0.144
86 | RRIRTRPPRLPRPRPRPNNSPRP | -0.61
87 | RRIRMRPPRLPRPRPRPKKTPRP | 1.46
88 | RRIRLRPPRLPRPRPRPHDNPRP | -0.526
89 | RRIRDRPPRLPRPRPRPPAIPRP | 0.00372
90 | RRIRSRPPRLPRPRPRPKWPPRP | 0.146
91 | RRIRMRPPRLPRPRPRPEMLPRP | 3.45
92 | RRIRDRPPRLPRPRPRPSEWPRP | -0.0637
93 | RRIRWRPPRLPRPRPRPCFIPRP | -0.423
94 | RRIRQRPPRLPRPRPRPDTFPRP | -0.00762
95 | RRIRWRPPRLPRPRPRPNVIPRP | -0.161
96 | RRIRNRPPRLPRPRPRPCMEPRP | -0.206
97 | RRIRIRPPRLPRPRPRPSLEPRP | -0.05
98 | RRIRDRPPRLPRPRPRPYNGPRP | -0.0516
99 | RRIRQRPPRLPRPRPRPPCKPRP | 0.0303
100 | RRIRLRPPRLPRPRPRPHFWPRP | 0.144

Row | Sequence | shrunken log2 fold change
101 | RRIRMRPPRLPRPRPRPKGRPRP | -0.00141
102 | RRIRERPPRLPRPRPRPISDPRP | 0.00346
103 | RRIRERPPRLPRPRPRPPTQPRP | 0.159
104 | RRIRFRPPRLPRPRPRPLMRPRP | 0.278
105 | RRIRLRPPRLPRPRPRPTPMPRP | 0.143
106 | RRIRERPPRLPRPRPRPSEGPRP | 0.00843
107 | RRIRTRPPRLPRPRPRPQFQPRP | 0.183
108 | RRIRVRPPRLPRPRPRPTGSPRP | -0.133
109 | RRIRDRPPRLPRPRPRPTLKPRP | -0.0215
110 | RRIRMRPPRLPRPRPRPLRNPRP | 1.17
111 | RRIRSRPPRLPRPRPRPSRPPRP | 1.28
112 | RRIRKRPPRLPRPRPRPRASPRP | 0.675
113 | RRIRHRPPRLPRPRPRPTKDPRP | -0.154
114 | RRIRWRPPRLPRPRPRPLMQPRP | 0.217
115 | RRIRVRPPRLPRPRPRPWDLPRP | 0.146
116 | RRIRARPPRLPRPRPRPWNFPRP | -0.123
117 | RRIRCRPPRLPRPRPRPHCAPRP | -0.254
118 | RRIRMRPPRLPRPRPRPIVAPRP | 0.156
119 | RRIRDRPPRLPRPRPRPCNLPRP | -0.0295
120 | RRIRIRPPRLPRPRPRPQLGPRP | -0.0971
121 | RRIRSRPPRLPRPRPRPRDIPRP | -0.248
122 | RRIRSRPPRLPRPRPRPGNCPRP | -0.0261
123 | RRIRHRPPRLPRPRPRPNTKPRP | -0.0741
124 | RRIRTRPPRLPRPRPRPTLMPRP | -0.142
125 | RRIRTRPPRLPRPRPRPVTSPRP | -0.0276

Row | Sequence | shrunken log2 fold change
126 | RRIRFRPPRLPRPRPRPACDPRP | 0.103
127 | RRIRGRPPRLPRPRPRPGLWPRP | 1.03
128 | RRIRFRPPRLPRPRPRPTLQPRP | -0.107
129 | RRIRSRPPRLPRPRPRPDIEPRP | 0.0454
130 | RRIRMRPPRLPRPRPRPEPQPRP | 2.17
131 | RRIRVRPPRLPRPRPRPVLCPRP | 0.0228
132 | RRIRWRPPRLPRPRPRPVQEPRP | 0.342
133 | RRIRHRPPRLPRPRPRPWGVPRP | -0.141
134 | RRIRTRPPRLPRPRPRPMDCPRP | -0.0416
135 | RRIRARPPRLPRPRPRPKQVPRP | 0.0289
136 | RRIRSRPPRLPRPRPRPKYHPRP | -0.601
137 | RRIRPRPPRLPRPRPRPWGPPRP | 0.368
138 | RRIRMRPPRLPRPRPRPLISPRP | 0.171
139 | RRIRVRPPRLPRPRPRPCYYPRP | -0.147
140 | RRIRRRPPRLPRPRPRPPWMPRP | 0.269
141 | RRIRQRPPRLPRPRPRPHGAPRP | 0.0316
142 | RRIRQRPPRLPRPRPRPNMRPRP | 0.121
143 | RRIRVRPPRLPRPRPRPNEAPRP | -0.0128
144 | RRIRGRPPRLPRPRPRPWTHPRP | -0.0708
145 | RRIRWRPPRLPRPRPRPLQDPRP | -0.0523
146 | RRIRTRPPRLPRPRPRPIWAPRP | -0.085
147 | RRIRNRPPRLPRPRPRPWDNPRP | -0.0545
148 | RRIRPRPPRLPRPRPRPTMYPRP | 0.125
149 | RRIRSRPPRLPRPRPRPKVTPRP | -0.173
150 | RRIRIRPPRLPRPRPRPEELPRP | -0.0241
